# T1: PUF4 RNA-binding domain (Saccharomyces cerevisiae, UniProt P25339 537-888)
# T1 sequence: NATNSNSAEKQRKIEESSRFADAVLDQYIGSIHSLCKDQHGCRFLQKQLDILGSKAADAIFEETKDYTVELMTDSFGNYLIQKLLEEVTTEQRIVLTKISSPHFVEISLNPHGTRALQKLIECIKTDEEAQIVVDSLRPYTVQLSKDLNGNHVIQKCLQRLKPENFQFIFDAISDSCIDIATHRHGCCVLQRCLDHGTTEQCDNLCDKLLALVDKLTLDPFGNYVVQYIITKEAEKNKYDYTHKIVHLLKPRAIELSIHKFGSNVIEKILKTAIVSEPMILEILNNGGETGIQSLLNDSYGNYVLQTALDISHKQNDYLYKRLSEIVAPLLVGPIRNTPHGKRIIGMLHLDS
# Molecular target: T1, PUF4 RNA-binding domain
# Experiment: Mg; RNA-MaP; 20 mM Na-HEPES pH 7.4, 30 mM KOAc, 0.75 mM MgCl2, 0.1% Tween-20, 5% glycerol, 0.1 mg/mL BSA, 2 mM DTT; 25 C; 0.0125-409.6 nM protein
# Conditions: tags: N-His6-TEV cleaved; C-SNAP kept, Cy3B-labelled; label: tethered on chip by stalled RNA polymerase
row,Binder,Kd [nM]
1,UCUCUUAGUAUUAUAAUCUCUU (ssRNA) [Ib_S1_P5E.1_K5.1_C5.1_H5.1_[T1A]_A5.1_F5.1_[T9A]_T5.1],614
2,UCUCUUUAUAUUAUAAUCUCUU (ssRNA) [Ib_S1_P5E.1_K5.1_C5.1_H5.1_[G2A]_A5.1_F5.1_[T9A]_T5.1],124
3,UCUCUUUGCAUUAUCAUCUCUU (ssRNA) [Ib_S1_P5E.1_K5.1_C5.1_H5.1_[T3C]_A5.1_F5.1_[T9C]_T5.1],> 2300
4,UCUCUUUAUAUUAUCAUCUCUU (ssRNA) [Ib_S1_P5E.1_K5.1_C5.1_H5.1_[G2A]_A5.1_F5.1_[T9C]_T5.1],641
5,Id_ii_S2_P3E.3_K3.2_C3.2_[C-2A]_[T-1C]_H3.2_A3.1_F3.1_T3.2_[T9A] (ssRNA) RNA: UUUGAUUAAUAUGAUAUCGUUCUUUCUACUAUAUAUAAAUUCUUUCUCGAUAUCAUAUUAAUCUUU,290
6,Id_ii_S2_P3E.3_K3.2_C3.2_[T-1G]_H3.2_A3.1_F3.1_T3.2 (ssRNA) RNA: UUUGAUUAAUAUGAUAUCGUUCUUUCUCGUAUAUAUAUAUUCUUUCUCGAUAUCAUAUUAAUCUUU,160
7,Id_ii_S2_P3E.3_K3.2_C3.2_[T-1C]_H3.2_A3.1_F3.1_T3.2_[T9A] (ssRNA) RNA: UUUGAUUAAUAUGAUAUCGUUCUUUCUCCUAUAUAUAAAUUCUUUCUCGAUAUCAUAUUAAUCUUU,251
8,Id_ii_S2_P3E.3_K3.2_C3.2_[T-1C]_H3.2_A3.1_F3.1_T3.2_[T9A]_[A10C] (ssRNA) RNA: UUUGAUUAAUAUGAUAUCGUUCUUUCUCCUAUAUAUAACUUCUUUCUCGAUAUCAUAUUAAUCUUU,122
9,Id_ii_S2_P3E.3_K3.2_C3.2_H3.2_A3.1_F3.1_T3.2_[A10G] (ssRNA) RNA: UUUGAUUAAUAUGAUAUCGUUCUUUCUCUUAUAUAUAUGUUCUUUCUCGAUAUCAUAUUAAUCUUU,83.8
10,Id_ii_S2_P3E.3_K3.2_C3.2_H3.2_A3.1_F3.1_T3.2_[T9C] (ssRNA) RNA: UUUGAUUAAUAUGAUAUCGUUCUUUCUCUUAUAUAUACAUUCUUUCUCGAUAUCAUAUUAAUCUUU,108
11,Id_ii_S2_P3E.3_K3.2_C3.2_[T-1C]_H3.2_A3.1_F3.1_T3.2_[T9G]_[A10T] (ssRNA) RNA: UUUGAUUAAUAUGAUAUCGUUCUUUCUCCUAUAUAUAGUUUCUUUCUCGAUAUCAUAUUAAUCUUU,718
12,Id_ii_S2_P3E.3_K3.2_C3.2_[T-1C]_H3.2_A3.1_F3.1_T3.2_[T9C]_[A10T] (ssRNA) RNA: UUUGAUUAAUAUGAUAUCGUUCUUUCUCCUAUAUAUACUUUCUUUCUCGAUAUCAUAUUAAUCUUU,120
13,Id_ii_S2_P3E.3_K3.2_C3.2_[T-1A]_H3.2_A3.1_F3.1_T3.2_[T9A]_[A10G] (ssRNA) RNA: UUUGAUUAAUAUGAUAUCGUUCUUUCUCAUAUAUAUAAGUUCUUUCUCGAUAUCAUAUUAAUCUUU,1090
14,Id_ii_S2_P3E.3_K3.2_C3.2_[T-1C]_H3.2_A3.1_F3.1_T3.2_[T9A]_[A10G] (ssRNA) RNA: UUUGAUUAAUAUGAUAUCGUUCUUUCUCCUAUAUAUAAGUUCUUUCUCGAUAUCAUAUUAAUCUUU,739
15,Id_ii_S2_P3E.3_K3.2_C3.2_[C-2A]_H3.2_A3.1_F3.1_T3.2_[T9C]_[A10T] (ssRNA) RNA: UUUGAUUAAUAUGAUAUCGUUCUUUCUAUUAUAUAUACUUUCUUUCUCGAUAUCAUAUUAAUCUUU,214
16,Id_ii_S2_P3E.3_K3.2_C3.2_H3.2_A3.1_F3.1_T3.2_[T9C]_[A10G] (ssRNA) RNA: UUUGAUUAAUAUGAUAUCGUUCUUUCUCUUAUAUAUACGUUCUUUCUCGAUAUCAUAUUAAUCUUU,292
17,Id_ii_S2_P3E.3_K3.2_C3.2_H3.2_A3.1_F3.1_T3.2_[A10C] (ssRNA) RNA: UUUGAUUAAUAUGAUAUCGUUCUUUCUCUUAUAUAUAUCUUCUUUCUCGAUAUCAUAUUAAUCUUU,83.2
18,Id_ii_S2_P3E.3_K3.2_C3.2_[T-1C]_H3.2_A3.1_F3.1_T3.2 (ssRNA) RNA: UUUGAUUAAUAUGAUAUCGUUCUUUCUCCUAUAUAUAUAUUCUUUCUCGAUAUCAUAUUAAUCUUU,42.2
19,Id_ii_S2_P3E.3_K3.2_C3.2_[T-1A]_H3.2_A3.1_F3.1_T3.2_[T9A]_[A10C] (ssRNA) RNA: UUUGAUUAAUAUGAUAUCGUUCUUUCUCAUAUAUAUAACUUCUUUCUCGAUAUCAUAUUAAUCUUU,218
20,Id_ii_S2_P3E.3_K3.2_C3.2_[T-1A]_H3.2_A3.1_F3.1_T3.2_[A10C] (ssRNA) RNA: UUUGAUUAAUAUGAUAUCGUUCUUUCUCAUAUAUAUAUCUUCUUUCUCGAUAUCAUAUUAAUCUUU,227
21,Id_ii_S2_P3E.3_K3.2_C3.2_H3.2_A3.1_F3.1_T3.2_[T9A]_[A10T] (ssRNA) RNA: UUUGAUUAAUAUGAUAUCGUUCUUUCUCUUAUAUAUAAUUUCUUUCUCGAUAUCAUAUUAAUCUUU,121
22,Id_ii_S2_P3E.3_K3.2_C3.2_[C-2A]_H3.2_A3.1_F3.1_T3.2_[T9C]_[A10C] (ssRNA) RNA: UUUGAUUAAUAUGAUAUCGUUCUUUCUAUUAUAUAUACCUUCUUUCUCGAUAUCAUAUUAAUCUUU,322
23,Id_ii_S2_P3E.3_K3.2_C3.2_[T-1G]_H3.2_A3.1_F3.1_T3.2_[T9C]_[A10C] (ssRNA) RNA: UUUGAUUAAUAUGAUAUCGUUCUUUCUCGUAUAUAUACCUUCUUUCUCGAUAUCAUAUUAAUCUUU,863

row,Binder,Kd [nM]
1,Id_ii_S2_P3E.3_K3.2_C3.2_[C-2A]_H3.2_A3.1_F3.1_T3.2_[T9A]_[A10T] (ssRNA) RNA: UUUGAUUAAUAUGAUAUCGUUCUUUCUAUUAUAUAUAAUUUCUUUCUCGAUAUCAUAUUAAUCUUU,531
2,Id_ii_S2_P3E.3_K3.2_C3.2_[C-2A]_H3.2_A3.1_F3.1_T3.2_[T9A] (ssRNA) RNA: UUUGAUUAAUAUGAUAUCGUUCUUUCUAUUAUAUAUAAAUUCUUUCUCGAUAUCAUAUUAAUCUUU,693
3,Id_ii_S2_P3E.3_K3.2_C3.2_[C-2A]_[T-1C]_H3.2_A3.1_F3.1_T3.2_[A10C] (ssRNA) RNA: UUUGAUUAAUAUGAUAUCGUUCUUUCUACUAUAUAUAUCUUCUUUCUCGAUAUCAUAUUAAUCUUU,183
4,Id_ii_S2_P3E.3_K3.2_C3.2_[T-1C]_H3.2_A3.1_F3.1_T3.2_[T9A]_[A10T] (ssRNA) RNA: UUUGAUUAAUAUGAUAUCGUUCUUUCUCCUAUAUAUAAUUUCUUUCUCGAUAUCAUAUUAAUCUUU,93.1
5,Id_ii_S2_P3E.3_K3.2_C3.2_[T-1C]_H3.2_A3.1_F3.1_T3.2_[T9C] (ssRNA) RNA: UUUGAUUAAUAUGAUAUCGUUCUUUCUCCUAUAUAUACAUUCUUUCUCGAUAUCAUAUUAAUCUUU,84.9
6,Id_ii_S2_P3E.4_K3.3_C3.2_[C-2G]_[T-1C]_H3.3_A3.1_F3.1_T3.2_[T9C]_[A10G] (ssRNA) RNA: UUUGAUUAAUAUGAUAUCGUUCUUUCUGCACACUAUACGUUCUUUCUCGAUAUCAUAUUAAUCUUU,817
7,Id_ii_S2_P3E.3_K3.2_C3.2_[T-1A]_H3.2_A3.1_F3.1_T3.2_[T9C]_[A10C] (ssRNA) RNA: UUUGAUUAAUAUGAUAUCGUUCUUUCUCAUAUAUAUACCUUCUUUCUCGAUAUCAUAUUAAUCUUU,177
8,Id_ii_S2_P3E.3_K3.2_C3.2_[C-2A]_[T-1A]_H3.2_A3.1_F3.1_T3.2_[A10T] (ssRNA) RNA: UUUGAUUAAUAUGAUAUCGUUCUUUCUAAUAUAUAUAUUUUCUUUCUCGAUAUCAUAUUAAUCUUU,720
9,Id_ii_S2_P3E.3_K3.2_C3.2_H3.2_A3.1_F3.1_T3.2_[T9C]_[A10C] (ssRNA) RNA: UUUGAUUAAUAUGAUAUCGUUCUUUCUCUUAUAUAUACCUUCUUUCUCGAUAUCAUAUUAAUCUUU,115
10,Id_ii_S2_P3E.3_K3.2_C3.2_H3.2_A3.1_F3.1_T3.2_[A10T] (ssRNA) RNA: UUUGAUUAAUAUGAUAUCGUUCUUUCUCUUAUAUAUAUUUUCUUUCUCGAUAUCAUAUUAAUCUUU,72.5
11,Id_ii_S2_P3E.3_K3.2_C3.2_[T-1A]_H3.2_A3.1_F3.1_T3.2_[T9C] (ssRNA) RNA: UUUGAUUAAUAUGAUAUCGUUCUUUCUCAUAUAUAUACAUUCUUUCUCGAUAUCAUAUUAAUCUUU,198
12,Id_ii_S2_P3E.3_K3.2_C3.2_H3.2_A3.1_F3.1_T3.2 (ssRNA) RNA: UUUGAUUAAUAUGAUAUCGUUCUUUCUCUUAUAUAUAUAUUCUUUCUCGAUAUCAUAUUAAUCUUU,54.4
13,Id_ii_S2_P3E.3_K3.2_C3.2_[C-2A]_H3.2_A3.1_F3.1_T3.2_[T9C]_[A10G] (ssRNA) RNA: UUUGAUUAAUAUGAUAUCGUUCUUUCUAUUAUAUAUACGUUCUUUCUCGAUAUCAUAUUAAUCUUU,713
14,Id_ii_S2_P3E.3_K3.2_C3.2_H3.2_A3.1_F3.1_T3.2_[T9A] (ssRNA) RNA: UUUGAUUAAUAUGAUAUCGUUCUUUCUCUUAUAUAUAAAUUCUUUCUCGAUAUCAUAUUAAUCUUU,401
15,Id_ii_S2_P3E.3_K3.2_C3.2_[T-1A]_H3.2_A3.1_F3.1_T3.2_[T9G]_[A10T] (ssRNA) RNA: UUUGAUUAAUAUGAUAUCGUUCUUUCUCAUAUAUAUAGUUUCUUUCUCGAUAUCAUAUUAAUCUUU,447
16,Id_ii_S2_P3E.3_K3.2_C3.2_H3.2_A3.1_F3.1_T3.2_[T9A]_[A10C] (ssRNA) RNA: UUUGAUUAAUAUGAUAUCGUUCUUUCUCUUAUAUAUAACUUCUUUCUCGAUAUCAUAUUAAUCUUU,112
17,Id_ii_S2_P3E.3_K3.2_C3.2_[T-1G]_H3.2_A3.1_F3.1_T3.2_[T9G]_[A10C] (ssRNA) RNA: UUUGAUUAAUAUGAUAUCGUUCUUUCUCGUAUAUAUAGCUUCUUUCUCGAUAUCAUAUUAAUCUUU,108
18,Id_ii_S2_P3E.3_K3.2_C3.2_[T-1G]_H3.2_A3.1_F3.1_T3.2_[T9A] (ssRNA) RNA: UUUGAUUAAUAUGAUAUCGUUCUUUCUCGUAUAUAUAAAUUCUUUCUCGAUAUCAUAUUAAUCUUU,190
19,Id_ii_S2_P3E.3_K3.2_C3.2_[T-1C]_H3.2_A3.1_F3.1_T3.2_[T9C]_[A10C] (ssRNA) RNA: UUUGAUUAAUAUGAUAUCGUUCUUUCUCCUAUAUAUACCUUCUUUCUCGAUAUCAUAUUAAUCUUU,245
20,Id_ii_S2_P3E.3_K3.2_C3.2_[T-1G]_H3.2_A3.1_F3.1_T3.2_[T9A]_[A10G] (ssRNA) RNA: UUUGAUUAAUAUGAUAUCGUUCUUUCUCGUAUAUAUAAGUUCUUUCUCGAUAUCAUAUUAAUCUUU,573
21,Id_ii_S2_P3E.3_K3.2_C3.2_[C-2A]_[T-1A]_H3.2_A3.1_F3.1_T3.2_[T9G]_[A10C] (ssRNA) RNA: UUUGAUUAAUAUGAUAUCGUUCUUUCUAAUAUAUAUAGCUUCUUUCUCGAUAUCAUAUUAAUCUUU,701
22,Id_ii_S2_P3E.3_K3.2_C3.2_[C-2A]_[T-1A]_H3.2_A3.1_F3.1_T3.2_[T9A]_[A10G] (ssRNA) RNA: UUUGAUUAAUAUGAUAUCGUUCUUUCUAAUAUAUAUAAGUUCUUUCUCGAUAUCAUAUUAAUCUUU,1010

# Reference: paper PMC9352680, “A comprehensive thermodynamic model for RNA binding by the Saccharomyces cerevisiae Pumilio protein PUF4”
